In US20190263898A1 (UNIVERSITE GRENOBLE ALPES, published 2019):
One block for each binder: values may come before it. Ends that are not written are not given here.

Tests used:
[1] = target: T1, truncated Tau protein in fiber form (polymerized R3 peptide) (also: polymerized (fiber form)); experiment: ELISA, 2C5 titrated on polymerized R3 peptide (Mimes)
T1 construct: also called R3 peptide fibers; Mimetics (the R3 region of polymerized Tau)
T1 peptide: VQIVYKPVDLSKVTSKCG

[2] = target: T1, truncated Tau protein in fiber form …; experiment: ELISA, unlabeled 2C5 titrated on polymers of the R3 sequence of Tau (R3 Fibers), PBS with 1% BSA, pH 7.5; PBS wells as control
Method: (§1) The ELISAs are carried out before (FIG. 5) and after (FIG. 6) radiolabeling. It is noted that, after radiolabeling, the ligand retains good affinity for its target (FIG. 6).

[3] = target: T2, Tau protein in oligomer form (preparation of htau40 enriched with Tau oligomers, 48 h fibrillation with … (Homo sapiens (Human), UniProt P10636 2-758)); experiment: ELISA on preparation enriched with Tau oligomers
T2 construct: Oligomeric aggregate of full-length htau40; also called the oligomers; low-molecular-weight tau polymers

[4] = target: T3, native Tau protein (monomeric form) (Homo sapiens (Human), UniProt P10636 2-758); experiment: ELISA, 2C5 titrated on native Tau (Tau-N)
T3 construct: also called Tau-N (native taus); Tau in monomer form

[5] = target: T2, Tau protein in oligomer form …; experiment: ELISA, 2C5 titrated on a preparation enriched with Tau oligomers (Tau-O)
[6] = target: T4, Tau protein in fiber form (preparation of htau40 enriched with Tau fibers, 72 h fibrillation with heparin) (Homo sapiens (Human), UniProt P10636 2-758); experiment: ELISA, 2C5 titrated on a preparation enriched with Tau fibers (Tau-F)
T4 construct: Fibrillar aggregate of full-length htau40; also called Tau-F (Tau fibers); the fibers

[7] = target: T4, Tau protein in fiber form (preparation …); experiment: ELISA on preparation enriched with Tau fibers
[8] = target: T1, truncated Tau protein in fiber form …; experiment: ELISA on polymerized R3 peptide
[9] = target: T1, truncated Tau protein in fiber form …; experiment: ELISA-format assay with 2C5 radiolabeled with iodine 125 on polymers of the R3 sequence of Tau, CPM readout (sheet title: RIA 125I 2C5), PBS with 1% BSA, pH 7.5; PBS wells as control
Method: as §1

T4 sequence (P10636 other isoform, or with tags, fused parts or gaps limits assumed): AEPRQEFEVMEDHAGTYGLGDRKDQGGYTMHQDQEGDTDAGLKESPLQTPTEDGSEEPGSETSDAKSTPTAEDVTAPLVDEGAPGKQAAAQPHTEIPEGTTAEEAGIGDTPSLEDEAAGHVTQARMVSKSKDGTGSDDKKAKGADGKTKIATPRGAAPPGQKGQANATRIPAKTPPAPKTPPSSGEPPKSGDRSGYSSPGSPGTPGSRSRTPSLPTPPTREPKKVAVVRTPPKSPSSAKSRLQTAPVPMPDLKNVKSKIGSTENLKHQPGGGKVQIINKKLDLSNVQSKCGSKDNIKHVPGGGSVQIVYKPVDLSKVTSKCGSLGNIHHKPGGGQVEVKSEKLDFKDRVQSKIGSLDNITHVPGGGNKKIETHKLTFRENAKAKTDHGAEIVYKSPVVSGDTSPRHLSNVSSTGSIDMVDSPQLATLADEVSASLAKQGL
T2 sequence (P10636 other isoform, or with tags, fused parts or gaps limits assumed): as above
T3 sequence (P10636 other isoform, or with tags, fused parts or gaps limits assumed): as above

EC50 (read off the curve) [1]: ~50 nM | Kd [1]: 51.8 nM | Kd [2]: 14.4 nM | Kd [3]: 5 nM | Kd [4]: 1790 nM | Kd [5]: 6.28 nM | Kd [6]: 5.02 nM | Kd [7]: 6 nM | Kd [8]: 50 nM
B1: 2C5 nanobody (VHH) with C-terminal myc and six histidine residues tag (VHH)
VHH: QVQLVQSGGGLVQAGGSLRLSCAASGRTFSSDTLAWFRQAPGKEREFVASISPSGGVTYYEDSVKGRFTISRDNSKNTVLLQMNSLTPEDTAVYYCNRDPKYGNTRYWGQGTQVTVSS
notes: also called 2C5 Nb; 2C5 (VHH)

Kd [9]: 162 nM
B2: 2C5 nanobody radiolabeled with iodine 125 (VHH)
VHH: B1 VHH
modifications: radiolabeled with iodine 125 (site not stated)
